Among the data in paper PMC9482650, “Quantitative fragmentomics allow affinity mapping of interactomes” (Nature Communications, 2022) are pKd values, retold here.

Test in all cases: holdup assay
Common to all, as to parameters: key: below the threshold = too weak to quantify, mostly under pKd 3.1 to 4
Details in all cases: plain residues with an end cap or a label only (N-terminal biotin on a linker: ttds)

Experiment [1] addresses T1, CNKSR1, Q969H4.
T1 sequence (Q969H4 191-295, limits assumed, looked up): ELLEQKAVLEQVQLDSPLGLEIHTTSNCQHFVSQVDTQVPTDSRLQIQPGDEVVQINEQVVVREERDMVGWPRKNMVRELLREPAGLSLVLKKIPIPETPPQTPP

Experiment [2] has as its target T2, DVL1, O14640.
T2 sequence (O14640 246-333, limits assumed, looked up): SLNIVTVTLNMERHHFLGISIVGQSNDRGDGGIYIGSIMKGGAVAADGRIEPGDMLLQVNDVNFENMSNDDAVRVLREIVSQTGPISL

Experiment [3] deals with IL16_2, Q14005.
IL16_2, Q14005, sequence (Q14005 350-450): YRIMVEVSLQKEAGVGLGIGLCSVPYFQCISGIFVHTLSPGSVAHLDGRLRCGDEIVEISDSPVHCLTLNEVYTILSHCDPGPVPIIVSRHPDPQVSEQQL
Experiment [4] concerns the target T3, INTU, Q9ULD6.
T3 sequence (Q9ULD6 180-273, limits assumed, looked up): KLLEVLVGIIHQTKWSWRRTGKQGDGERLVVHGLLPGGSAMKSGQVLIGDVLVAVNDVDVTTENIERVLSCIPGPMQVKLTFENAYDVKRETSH

In experiment [5] the target is MAGI1_3, Q96QZ7.
MAGI1_3, Q96QZ7, sequence (Q96QZ7 638-725): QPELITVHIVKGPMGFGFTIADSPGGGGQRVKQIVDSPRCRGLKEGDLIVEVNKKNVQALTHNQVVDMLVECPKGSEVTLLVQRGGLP
The target in experiment [6] is MAGI1_6, Q96QZ7.
MAGI1_6, Q96QZ7, sequence (Q96QZ7 1146-1238): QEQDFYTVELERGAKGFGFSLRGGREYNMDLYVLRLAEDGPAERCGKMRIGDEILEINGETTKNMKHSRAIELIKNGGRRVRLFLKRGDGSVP
For experiment [7], the target named is T4, MAGI2_1, Q86UL8.
T4 sequence (Q86UL8 12-111, limits assumed, looked up): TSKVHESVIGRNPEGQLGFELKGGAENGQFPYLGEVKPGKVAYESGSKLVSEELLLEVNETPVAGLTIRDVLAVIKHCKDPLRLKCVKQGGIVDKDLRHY

For experiment [8], the target named is MAGI3_6, Q5TCQ9.
MAGI3_6, Q5TCQ9, sequence (Q5TCQ9 1014-1103): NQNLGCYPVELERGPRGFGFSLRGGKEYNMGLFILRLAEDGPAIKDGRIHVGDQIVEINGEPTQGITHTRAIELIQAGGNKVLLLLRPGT
The target of experiment [9] is MAGIX, Q9H6Y5.
MAGIX, Q9H6Y5, sequence (Q9H6Y5 118-211): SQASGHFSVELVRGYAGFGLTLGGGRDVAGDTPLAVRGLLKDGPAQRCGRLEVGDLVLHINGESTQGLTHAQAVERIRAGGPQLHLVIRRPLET
Experiment [10] addresses T5, MPDZ_6, O75970.
T5 sequence (O75970 1003-1099, limits assumed, looked up): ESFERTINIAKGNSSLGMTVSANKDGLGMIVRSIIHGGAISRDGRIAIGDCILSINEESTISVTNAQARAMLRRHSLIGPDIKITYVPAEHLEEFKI

The target in experiment [11] is T6, MPDZ_7, O75970.
T6 sequence (O75970 1146-1253, limits assumed, looked up): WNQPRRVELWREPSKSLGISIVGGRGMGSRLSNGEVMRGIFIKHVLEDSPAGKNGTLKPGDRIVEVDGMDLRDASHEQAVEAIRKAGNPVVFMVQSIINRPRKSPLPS

Experiment [12] concerns the target T7, NHERF1_1, O14745.
T7 sequence (O14745 9-104, limits assumed, looked up): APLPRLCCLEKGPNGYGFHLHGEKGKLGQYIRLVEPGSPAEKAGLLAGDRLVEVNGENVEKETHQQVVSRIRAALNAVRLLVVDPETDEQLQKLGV

Experiment [13] concerns the target T8, NHERF3_2, Q5T2W1.
T8 sequence (Q5T2W1 129-225, limits assumed, looked up): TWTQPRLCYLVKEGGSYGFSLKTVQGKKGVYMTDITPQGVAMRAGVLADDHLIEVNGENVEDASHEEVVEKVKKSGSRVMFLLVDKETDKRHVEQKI

Experiment [14] concerns the target T9, PARD6B, Q9BYG5.
T9 sequence (Q9BYG5 152-260, limits assumed, looked up): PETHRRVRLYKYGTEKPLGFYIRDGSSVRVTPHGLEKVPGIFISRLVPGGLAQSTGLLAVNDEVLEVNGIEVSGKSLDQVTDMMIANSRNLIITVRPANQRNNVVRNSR

For experiment [15], the target named is T10, PDLIM3, Q53GG5.
T10 sequence (Q53GG5 1-94, limits assumed, looked up): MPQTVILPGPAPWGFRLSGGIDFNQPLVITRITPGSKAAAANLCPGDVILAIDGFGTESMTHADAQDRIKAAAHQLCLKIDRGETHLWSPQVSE

Experiment [16] addresses PDLIM4, P50479.
Experiment [17] has as its target T11, PDZD8, Q8NEN9.
T11 sequence (Q8NEN9 361-459, limits assumed, looked up): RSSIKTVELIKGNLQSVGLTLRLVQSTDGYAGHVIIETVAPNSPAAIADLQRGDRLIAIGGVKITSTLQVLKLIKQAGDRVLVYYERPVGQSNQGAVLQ

Experiment [18] addresses PDZRN4_2, Q6ZMN7.
The target of experiment [19] is T12, PTPN4, P29074.
T12 sequence (P29074 512-599, limits assumed, looked up): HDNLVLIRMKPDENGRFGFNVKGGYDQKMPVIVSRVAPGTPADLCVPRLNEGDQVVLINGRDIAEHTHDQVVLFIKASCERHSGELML

Experiment [20] has as its target T13, SHANK2, Q9UPX8.
T13 sequence (Q9UPX8 621-730, limits assumed, looked up): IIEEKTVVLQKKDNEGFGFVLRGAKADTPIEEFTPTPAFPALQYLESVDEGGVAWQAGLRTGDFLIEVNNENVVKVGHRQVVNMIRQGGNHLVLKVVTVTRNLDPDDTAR

Experiment [21] concerns the target T14, TJP3_1, O95049.
T14 sequence (O95049 6-103, limits assumed, looked up): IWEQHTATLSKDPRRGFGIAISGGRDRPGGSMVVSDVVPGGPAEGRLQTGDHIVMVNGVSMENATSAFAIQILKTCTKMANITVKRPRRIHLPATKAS

The target of experiment [22] is T15, TJP3_2, O95049.
T15 sequence (O95049 190-282, limits assumed, looked up): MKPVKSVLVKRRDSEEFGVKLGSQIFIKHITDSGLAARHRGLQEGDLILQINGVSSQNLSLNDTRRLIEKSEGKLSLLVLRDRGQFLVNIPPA

Usually pKd stands for −log10 of the Kd, conventionally taken in molar units.

PDZRN4_2, Q6ZMN7, sequence (Q6ZMN7 389-498): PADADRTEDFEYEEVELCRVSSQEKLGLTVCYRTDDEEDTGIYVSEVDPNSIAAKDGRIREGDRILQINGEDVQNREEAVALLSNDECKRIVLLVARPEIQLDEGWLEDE
PDLIM4, P50479, sequence (P50479 1-83): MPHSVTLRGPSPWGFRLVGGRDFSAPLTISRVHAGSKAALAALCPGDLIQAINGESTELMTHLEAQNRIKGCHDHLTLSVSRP

SSIDLWETAL [SLC15A5, A6NIM6]: the pKd result was “below the threshold” in [1]; “below the threshold” in [2]; “below the threshold” in [3]; “below the threshold” in experiment [4]; “below the threshold” in experiment [5]; 5.18 in [6]. In addition, the pKd result in [7] was “below the threshold”; in [8] it was 4.89; in [9] it was “below the threshold”; in [10] it was “below the threshold”; in experiment [11] it was 6.09; in experiment [12] it was “below the threshold”. Besides, the negative-log Kd (pKd) entry in experiment [13], in experiment [14], in experiment [15], in experiment [16], in [17] and in experiment [18] was “below the threshold” in each case. Besides, the pKd is 4.84 in [19], 5.87 in experiment [20], “below the threshold” in experiment [21] and “below the threshold” in experiment [22].

Take SGGKRKETLV [NET1, Q7Z628]: the negative-log Kd (pKd) result in experiment [2] is “below the threshold”; in experiment [3] it was “below the threshold”; in experiment [4] it was “below the threshold”; in experiment [5], 4.91; in experiment [6], “below the threshold”; in [7], “below the threshold”. Also, the negative logarithm of the Kd (pKd) result in experiment [8] is “below the threshold”; in experiment [9], “below the threshold”; in experiment [10], “below the threshold”; in [11] it was 4.35; in experiment [12], “below the threshold”; in experiment [13] it was “below the threshold”. Further, the pKd result was “below the threshold” in [14]; “below the threshold” in experiment [15]; “below the threshold” in [16]; “below the threshold” in experiment [17]; “below the threshold” in experiment [18]; 3.51 in [19]. Further, the negative-log Kd (pKd) entry in [21] was “below the threshold”.

On to PPRQRSETQV [HPV82-E6, Q9IR59], for which the pKd entry in [1] is “below the threshold”; in experiment [2] it was “below the threshold”; in [3], “below the threshold”; in [5], 4.28; in experiment [6] it was 4.21; in [7] it was “below the threshold”. Also, the pKd result in [8], in experiment [9], in experiment [10], in experiment [11], in experiment [12] and in [13] was “below the threshold” throughout. Besides, the pKd result in experiment [14], in experiment [15], in experiment [16], in experiment [17], in [18] and in experiment [19] was “below the threshold” throughout. The negative logarithm of the Kd (pKd) result in experiment [20], in experiment [21] and in experiment [22] was “below the threshold” each time.
